This note sets out measurements from US20260242735A1 (UNIVERSIT T BASEL, published 2026).

For assay [1], the target named is human CD33 K130A (human, UniProt P20138 18-364). Nature of the assay: flow cytometry on HEK293-T, alanine scan. (Flow cytometry measures light scatter and fluorescence of single cells or particles in a stream.)
In assay [2] the target is human CD33 V136A (human, UniProt P20138 18-364). Nature of the assay: flow cytometry on HEK293-T, alanine scan.
For assay [3], the target named is human CD33 G94A (human, UniProt P20138 18-364). Nature of the assay: flow cytometry on HEK293-T, alanine scan.
Assay [4] concerns the target human CD33 I147A (human, UniProt P20138 18-364). Nature of the assay: flow cytometry on HEK293-T, alanine scan.
In assay [5] the target is human CD33 S166A (human, UniProt P20138 18-364). Nature of the assay: flow cytometry on HEK293-T, alanine scan.
human CD33 S166A, sequence (P20138 18-364 S166A limits assumed): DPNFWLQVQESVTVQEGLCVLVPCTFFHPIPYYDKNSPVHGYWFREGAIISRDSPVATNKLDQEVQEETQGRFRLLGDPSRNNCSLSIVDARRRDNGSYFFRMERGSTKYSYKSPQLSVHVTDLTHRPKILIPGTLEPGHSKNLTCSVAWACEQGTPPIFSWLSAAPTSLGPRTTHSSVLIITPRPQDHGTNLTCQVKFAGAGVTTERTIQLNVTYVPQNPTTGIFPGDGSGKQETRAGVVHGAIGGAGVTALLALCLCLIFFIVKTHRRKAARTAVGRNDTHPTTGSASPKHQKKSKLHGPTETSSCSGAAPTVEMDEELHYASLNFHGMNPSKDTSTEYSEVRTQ
For assay [6], the target named is human CD33 S131A (human, UniProt P20138 18-364). Nature of the assay: flow cytometry on HEK293-T, alanine scan.
human CD33 S131A, sequence (P20138 18-364 S131A limits assumed): as the sequence (P20138 18-364 S166A limits assumed) above, with S114A, A149S counted along it
Assay [7] addresses human CD33 R119A (human, UniProt P20138 18-364). Nature of the assay: flow cytometry on HEK293-T, alanine scan.
The target of assay [8] is human CD33 R98A (human, UniProt P20138 18-364). Nature of the assay: flow cytometry on HEK293-T, alanine scan.
The target in assay [9] is human CD33 V106A (human, UniProt P20138 18-364). Nature of the assay: flow cytometry on HEK293-T, alanine scan.
human CD33 V106A, sequence (P20138 18-364 V106A limits assumed): as the sequence (P20138 18-364 S166A limits assumed) above, with V89A, A149S counted along it
Assay [10] addresses human CD33 S128A (human, UniProt P20138 18-364). Nature of the assay: flow cytometry on HEK293-T, alanine scan.
The target of assay [11] is human CD33 Y129A (human, UniProt P20138 18-364). Nature of the assay: flow cytometry on HEK293-T, alanine scan.
Assay [12] has as its target human CD33 G123A (human, UniProt P20138 18-364). Nature of the assay: flow cytometry on HEK293-T, alanine scan.
Assay [13] addresses human CD33 I149A (human, UniProt P20138 18-364). Nature of the assay: flow cytometry on HEK293-T, alanine scan.
Assay [14] deals with human CD33 Y116A (human, UniProt P20138 18-364). Nature of the assay: flow cytometry on HEK293-T, alanine scan.
human CD33 Y116A, sequence (P20138 18-364 Y116A limits assumed): as the sequence (P20138 18-364 S166A limits assumed) above, with Y99A, A149S counted along it
The target of assay [15] is human CD33 K126A (human, UniProt P20138 18-364). Nature of the assay: flow cytometry on HEK293-T, alanine scan.
Assay [16] concerns the target human CD33 E121A (human, UniProt P20138 18-364). Nature of the assay: flow cytometry on HEK293-T, alanine scan.
The target of assay [17] is human CD33 S164A (human, UniProt P20138 18-364). Nature of the assay: flow cytometry on HEK293-T, alanine scan.
human CD33 S164A, sequence (P20138 18-364 S164A limits assumed): as the sequence (P20138 18-364 S166A limits assumed) above, with S147A, A149S counted along it
The target in assay [18] is human CD33 Y127A (human, UniProt P20138 18-364). Nature of the assay: flow cytometry on HEK293-T, alanine scan.
human CD33 Y127A, sequence (P20138 18-364 Y127A limits assumed): as the sequence (P20138 18-364 S166A limits assumed) above, with Y110A, A149S counted along it
Assay [19] addresses human CD33 V165A (human, UniProt P20138 18-364). Nature of the assay: flow cytometry on HEK293-T, alanine scan.
The target of assay [20] is human CD33 I47V (human, UniProt P20138 18-364). Nature of the assay: flow cytometry on transfected cells, IgG.
Assay [21] has as its target human CD33 T42K (human, UniProt P20138 18-364). Nature of the assay: flow cytometry on transfected cells, IgG.
Assay [22] deals with human CD33 Y50L (human, UniProt P20138 18-364). Nature of the assay: flow cytometry on transfected cells, IgG.
Assay [23] concerns the target human CD33 F44Q (human, UniProt P20138 18-364). Nature of the assay: flow cytometry on transfected cells, IgG.
For assay [24], the target named is human CD33 Y49L (human, UniProt P20138 18-364). Nature of the assay: flow cytometry on transfected cells, IgG.
In assay [25] the target is human CD33 I47G (human, UniProt P20138 18-364). Nature of the assay: flow cytometry on transfected cells, IgG.
Assay [26] addresses human CD33 Y50D (human, UniProt P20138 18-364). Nature of the assay: flow cytometry on transfected cells, IgG.
Assay [27] has as its target human CD33 Y50V (human, UniProt P20138 18-364). Nature of the assay: flow cytometry on transfected cells, IgG.
In assay [28] the target is human CD33 Y50H (human, UniProt P20138 18-364). Nature of the assay: flow cytometry on transfected cells, IgG.
In assay [29] the target is human CD33 I47R (human, UniProt P20138 18-364). Nature of the assay: flow cytometry on transfected cells, IgG.
Assay [30] concerns the target human CD33 F44H (human, UniProt P20138 18-364). Nature of the assay: flow cytometry on transfected cells, IgG.
Assay [31] deals with human CD33 P48N (human, UniProt P20138 18-364). Nature of the assay: flow cytometry on transfected cells, IgG.
The target of assay [32] is human CD33 Y50P (human, UniProt P20138 18-364). Nature of the assay: flow cytometry on transfected cells, IgG.
For assay [33], the target named is human CD33 P46F (human, UniProt P20138 18-364). Nature of the assay: flow cytometry on transfected cells, IgG.
Assay [34] concerns the target human CD33 P48F (human, UniProt P20138 18-364). Nature of the assay: flow cytometry on transfected cells, IgG.
The target of assay [35] is human CD33 F44I (human, UniProt P20138 18-364). Nature of the assay: flow cytometry on transfected cells, IgG.
The target of assay [36] is human CD33 Y49R (human, UniProt P20138 18-364). Nature of the assay: flow cytometry on transfected cells, IgG.
The target of assay [37] is human CD33 P48M (human, UniProt P20138 18-364). Nature of the assay: flow cytometry on transfected cells, IgG.

human CD33 G123A, sequence (P20138 18-364 G123A limits assumed): as the sequence (P20138 18-364 S166A limits assumed) above, with G106A, A149S counted along it
human CD33 I147A, sequence (P20138 18-364 I147A limits assumed): as the sequence (P20138 18-364 S166A limits assumed) above, with I130A, A149S counted along it
human CD33 S128A, sequence (P20138 18-364 S128A limits assumed): as the sequence (P20138 18-364 S166A limits assumed) above, with S111A, A149S counted along it
human CD33 E121A, sequence (P20138 18-364 E121A limits assumed): as the sequence (P20138 18-364 S166A limits assumed) above, with E104A, A149S counted along it
human CD33 R119A, sequence (P20138 18-364 R119A limits assumed): as the sequence (P20138 18-364 S166A limits assumed) above, with R102A, A149S counted along it
human CD33 K130A, sequence (P20138 18-364 K130A limits assumed): as the sequence (P20138 18-364 S166A limits assumed) above, with K113A, A149S counted along it
human CD33 V165A, sequence (P20138 18-364 V165A limits assumed): as the sequence (P20138 18-364 S166A limits assumed) above, with V148A, A149S counted along it
human CD33 V136A, sequence (P20138 18-364 V136A limits assumed): as the sequence (P20138 18-364 S166A limits assumed) above, with V119A, A149S counted along it

B1: Refmab #4 (antibody, V domains shown)
VH: QVQLVQSGAEVKKPGESVKVSCKASGYTFTNYGMNWVKQAPGQGLEWMGWINTYTGEPTYADKFQGRVTMTTDTSTSTAYMEIRNLGGDDTAVYYCARWSWSDGYYVYFDYWGQGTSVTVSS
VL: DIVMTQSPDSLTVSLGERTTINCKSSQSVLDSSTNKNSLAWYQQKPGQPPKLLLSWASTRESGIPDRFSGSGSGTDFTLTIDSPQPEDSATYYCQQSAHFPITFGQGTRLEIK
notes: The alanine scan used IgG or Fab
For the molecule B1, the “Mean % WT Binding” value was determined as 180 % WT binding in assay [1]; 47.7 % WT binding in [2]; 59 % WT binding in [3]; 58.7 % WT binding in assay [4]; 110 % WT binding in [5]; 134 % WT binding in assay [6]. Also, the “Mean % WT Binding” value in assay [7] worked out at 138 % WT binding; in assay [8], 128 % WT binding; in [9] it was 110 % WT binding; in assay [10] it was 184 % WT binding; in [11], 319 % WT binding; in assay [12] it was 97.9 % WT binding. Also, the “Mean % WT Binding” value in assay [13] stood at 99.9 % WT binding; in assay [14], 5.4 % WT binding; in assay [15], 212 % WT binding; in assay [16], 77.3 % WT binding; in assay [17], 112 % WT binding; in assay [18] it was 300 % WT binding. Moreover, the “Mean % WT Binding” value in assay [19] amounted to 117 % WT binding.

B2: Refmab #2 (antibody, V domains shown)
VH: QVQLVQSGAEVKKPGSSVKVSCKASGGTFSDYAISWVRQAPGQGLEWMGRIIPILGVADYAQKFQGRVTITADKSTRTAYMELSSLRSEDTAVYYCARNWADAFDIWGQGTMVTVSS
VL: DIQLTQSPSSLSASVGDRVTITCRASQGISSVLAWYQQKPGKAPKLLIYDASSLESGVPSRFSGSGSGTDFTLTISSLQPEDFATYYCQQFDSSITFGQGTKLEIK
notes: as for B1
As to B2, the “Mean % WT Binding” value amounted to 123 % WT binding in assay [1]; 99.8 % WT binding in assay [2]; 108 % WT binding in [3]; 92.2 % WT binding in assay [4]; 114 % WT binding in assay [5]; 123 % WT binding in assay [6]. Also, the “Mean % WT Binding” value turned out to be 130 % WT binding in assay [7]; 122 % WT binding in assay [8]; 112 % WT binding in assay [9]; 140 % WT binding in [10]; 137 % WT binding in assay [11]; 82 % WT binding in [12]. The “Mean % WT Binding” value was 116 % WT binding in [13]; 0.7 % WT binding in assay [14]; 121 % WT binding in [15]; 109 % WT binding in assay [16]; 117 % WT binding in assay [17]; 146 % WT binding in assay [18]. Moreover, the “Mean % WT Binding” value in assay [19] was 124 % WT binding.

B3: Refmab #3 (antibody, V domains shown)
VH: QVQLVQSGAEVKKPGSSVKVSCKASGYTFTDYNMHWVRQAPGQGLEWIGYIYPYNGGTGYNQKFKSKATITADESTNTAYMELSSLRSEDTAVYYCARGRPAMDYWGQGTLVTVSS
VL: DIQMTQSPSSLSASVGDRVTITCRASESVDNYGISFMNWFQQKPGKAPKLLIYAASNQGSGVPSRFSGSGSGTDFTLTISSLQPDDFATYYCQQSKEVPWTFGQGTKVEIK
notes: as for B1
Consider B3, for which the “Mean % WT Binding” value in assay [1] was found to be 152 % WT binding; in assay [2], 106 % WT binding; in assay [3] it was 115 % WT binding; in [4] it was 67.1 % WT binding; in [5], 131 % WT binding; in assay [6], 117 % WT binding. Further, the “Mean % WT Binding” value amounted to 1020 % WT binding in assay [7]; 102 % WT binding in [8]; 85.7 % WT binding in assay [9]; 446 % WT binding in [10]; 292 % WT binding in assay [12]; 101 % WT binding in assay [13]. The “Mean % WT Binding” value in assay [14] was determined as 5.3 % WT binding; in assay [15], 566 % WT binding; in assay [16], 132 % WT binding; in assay [17] it was 96.3 % WT binding; in assay [18] it was 31.9 % WT binding; in assay [19] it was 116 % WT binding.

B4: Refmab #1 (antibody, V domains shown)
VH: EVQLVQSGAEVKKPGSSVKVSCKASGYTITDSNIHWVRQAPGQSLEWIGYIYPYNGGTDYNQKFKNRATLTVDNPTNTAYMELSSLRSEDTAFYYCVNGNPWLAYWGQGTLVTVSS
VL: DIQLTQSPSTLSASVGDRVTITCRASESLDNYGIRFLTWFQQKPGKAPKLLMYAASNQGSGVPSRFSGSGSGTEFTLTISSLQPDDFATYYCQQTKEVPWSFGQGTKVEVK
notes: The alanine scan used IgG or Fab; also called hP67.6
With B4, the “Mean % WT Binding” value in assay [1] stood at 106 % WT binding; in assay [2] it was 64.2 % WT binding; in assay [3] it was 88.3 % WT binding; in [4], 71.6 % WT binding; in assay [5] it was 98.3 % WT binding; in assay [6], 85.9 % WT binding. Also, the “Mean % WT Binding” value in assay [7] worked out at 109 % WT binding; in assay [8], 99.1 % WT binding; in [9], 88.5 % WT binding; in assay [10], 118 % WT binding; in assay [11], 53.2 % WT binding; in assay [12], 107 % WT binding. The “Mean % WT Binding” value was found to be 87.5 % WT binding in assay [13]; 0.9 % WT binding in [14]; 100 % WT binding in assay [15]; 87.7 % WT binding in assay [16]; 101 % WT binding in [17]; 92.6 % WT binding in assay [18]. In addition, in assay [19], the “Mean % WT Binding” value worked out at 91.6 % WT binding.

B5: Refmab #5 (antibody, human IgG1, V domains shown)
VH: QVQLVQSGAEVKKPGASVKVSCKASGYTFTNYDINWVRQAPGQGLEWIGWIYPGDGSTKYNEKFKAKATLTADTSTSTAYMELRSLRSDDTAVYYCASGYEDAMDYWGQGTTVTVSS
VL: DIQMTQSPSSLSASVGDRVTINCKASQDINSYLSWFQQKPGKAPKTLIYRANRLVDGVPSRFSGSGSGQDYTLTISSLQPEDFATYYCLQYDEFPLTFGGGTKVEIK
In the case of B5, the “Mean % WT Binding” value is 104 % WT binding in [20]; 79.5 % WT binding in [21]; 1.7 % WT binding in [22]; 93.9 % WT binding in assay [23]; 0.8 % WT binding in assay [24]; 80.9 % WT binding in assay [25]. Besides, the “Mean % WT Binding” value in assay [26] is 2.5 % WT binding; in assay [27], 4.2 % WT binding; in assay [28], 7.1 % WT binding; in assay [29], 94.6 % WT binding; in [30], 117 % WT binding; in [31] it was 4.4 % WT binding. Besides, the “Mean % WT Binding” value in assay [32] came out at 43.4 % WT binding; in assay [33], 62 % WT binding; in assay [34] it was 6 % WT binding; in [35], 106 % WT binding; in assay [36] it was 1 % WT binding; in assay [37] it was 31.4 % WT binding.
